According to patent publication US20190367616A1 (SYMPHOGEN A S, published 2019):
Changes are numbered by the printed parent chain. Numbers in names are those of the source.

T1: mouse PD-1 ECD (Sino Biological cat. no. 50124-MO8H) (mouse, UniProt Q02242 25-169)
T1 construct: extracellular domain; Bought monomeric ECD
T1 sequence (looked up): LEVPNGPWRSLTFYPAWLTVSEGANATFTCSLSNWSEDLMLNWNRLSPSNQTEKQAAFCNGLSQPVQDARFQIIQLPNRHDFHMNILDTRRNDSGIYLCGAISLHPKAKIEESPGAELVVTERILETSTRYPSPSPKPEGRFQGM

B1: antibody 18040 (antibody, V domains shown)
VH: QVQLVESGGGLVKPGGSLRLSCAASGFTFSDYYMNWIRQAPGKGLEWVSYISSTGSTIYYADSVKGRFTISRDNAKNSLYLQMDSLRAEDTAVYYCARATNWGSDYWGQGTLVTVSS
VL: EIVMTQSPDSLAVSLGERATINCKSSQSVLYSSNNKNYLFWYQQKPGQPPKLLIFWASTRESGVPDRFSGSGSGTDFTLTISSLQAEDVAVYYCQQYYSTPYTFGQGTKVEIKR
notes: Tested as human IgG1 L234A/L235A (LALA), kappa; The VH/VL entries carry X at variable positions
B2: antibody 18113 (antibody, V domains shown)
VH: B1 VH with N35S, T54S, V64A, D84N, A99D, G103A, S104F
VL: DIQLTQSPDSLAVSLGERATINCKSSQSVFYSANNKNYLAWYQQKPGQPPKLLIYWTSTRESGVPDRFRGSGSGTDFTLTISSLQAEDVAVYYCQQFYSTPRTFGQGTKVEIKR
notes: Tested as human IgG1 L234A/L235A (LALA), kappa
B3: antibody 18483 (antibody, V domains shown)
VH: QVQLQQSGGGLVQPGGSLRLSCAASGFTFSDYWMNWVRQAPGKGLEWVANIKEDGNEKYYVDSVKGRFTISRDNAKNSLYLQMNSLRAEDTAVYYCARDTNWGSDYWGQGTLVTVSS
VL: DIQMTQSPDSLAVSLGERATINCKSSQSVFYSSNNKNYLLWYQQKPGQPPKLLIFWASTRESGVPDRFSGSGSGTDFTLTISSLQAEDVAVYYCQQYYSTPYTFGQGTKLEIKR
notes: as for B2
B4: antibody 18049 (antibody, V domains shown)
VH: QVQLVESGGGVVQPGRSLRLSCAASGFTFSNYGMHWVRQAPGKGLEWVAVIWYDGSDKYYADSVKGRFTISRDNSKNTLYLQMNSLRAEDTAVYYCAGGGNYYGDFWGQGTLVTVSS
VL: EIVMTQSPSSLSASVGDRVTITCRASQGIRNDLGWYQQKPGKAPKRLIYVASNLQSGVPSRFSGSGSGTEFTLTISSLQPEDFATYYCLQYNSYPWTFGQGTKVEIKR
notes: as for B2
B5: antibody 18400 (antibody, V domains shown)
VH: QLQLQESGPGLVKPSGTLSLTCAVSGGSISSSNWWSWVRQPPKKGLEWVGEIFHDGTTSYNPSLKSRVTMSVDKSKNQFSLKLSSVTAADTAVYYCARGNWGSGALDIWGPGTMVTVSS
VL: B4 VL with S10P, R46L, V50A, N53S, E70D, Y91D, N92Y, S93N, W96R
notes: as for B2
B6: antibody 18098 (antibody, V domains shown)
VH: QVQLQESGGGLVRPGGSLRLSCAASGFTFSSFAMNWVRQAPGKGLVWVSTITGGGTTSYYADSVKGRFTISRDNSKSTLFLQMNSLRAEDTAVYYCAKWGSWSAGAFDIWGQGTTVTVSS
VL: DIQLTQSPSSVSASVGDRVTITCRASQGISSWLAWYQQKPGKAPKLLIYAASSLQSGVPSRFSGSGSGTDFTLTISSLQPEDFATYYCQQANSFPWTFGQGTKVEIKR
notes: as for B2
B7: antibody 18325 (antibody, V domains shown)
VH: QVQLQQSGGGLVQPGGSLRLSCAASGFTFSSHVMNWVRQAPGKGLEWVATISGSGVDTYYADSVKGRFTISRGNSKNMLYLQMNSLRAEDTAVYYCAKWGSWSAGAFDIWGQGTMVTVSS
VL: B6 VL with D1E, Q3V
notes: as for B2
B8: antibody 18413 (antibody, V domains shown)
VH: EVQLVESGGGLVQPGGSLRLSCAASGFTFSSFVMSWVRQAPGKGLEWLSTISGGGGSTYYADSVKGRFTISRDNSKNTLYLQMNSLRAEDTAVYYCAKDWDLYYFDYWGQGTLVTVSS
VL: B6 VL with S12P, S31N, W96L, Q100G
notes: as for B2

What follows are binders tested against T2, cynomolgus PD-1 ECD (Acro Biosystems cat. no. PD1-05223) (cynomolgus, UniProt B0LAJ3 25-170) (assay: SPR, antibody on sensor, monomeric PD-1 ECD in solution).
T2 construct: Bought monomeric ECD; not shown: any purification tag of the vendor's product (Acro Biosystems PD1-05223, probably a His tag)
T2 sequence (B0LAJ3 entry or part of it limits assumed): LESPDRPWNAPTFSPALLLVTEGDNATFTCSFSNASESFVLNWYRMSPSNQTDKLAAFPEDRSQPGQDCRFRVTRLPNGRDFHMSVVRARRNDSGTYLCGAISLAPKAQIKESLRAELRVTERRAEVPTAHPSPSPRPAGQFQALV
Experimental: (§1) The kinetic binding analysis was performed by Surface Plasmon Resonance (SPR) using a Continuous Flow Microspotter (CFM, Wasatch Microfluidics, US) combined with an Ibis MX96 SPR instrument (IBIS Technologies, The Netherlands). Surface Plasmon Resonance imaging analysis was performed on G-a-hu-IgG Fc SensEye® SPR sensors (Ssens BV, The Netherlands). Anti-PD-1 antibodies expressed in IgG₁ LALA format (i.e., having the mutations L234A/L235A) were diluted to 2.5 nM in PBS-T (1×PBS with 0.05% Tween 20, pH 7.4). Antibodies were spotted onto a G-a-hu-IgG Fc SensEye® for 15 minutes using a Continuous Flow Microspotter (CFM, Wasatch Microfluidics, Salt Lake City, US). After spotting, the SensEye® was positioned in the IBIS MX96 biosensor, and antibodies were chemically fixed to the sensor surface using Fix It Kit (Ssens BV, The Netherlands). Kinetic analysis was performed by applying a kinetic titration series (Karlsson et. al., Anal. Biochem. 349(1):136-47 (2006)), where monomeric PD-1 antigen was injected in increasing concentrations from 2 nM to 100 nM without application of surface regeneration steps after each antigen injection. Binding was tested to human PD-1 ECD (Acro Biosystems cat. no. PD1-H52219), mouse PD-1 ECD (Sino Biological. cat. no. 50124-MO8H) and cynomolgus PD-1 ECD (Acro Biosystems cat. no. PD1-05223) in three separate experiments. Antigen association was performed for 15 minutes and antigen dissociation was performed for 60 minutes. The kinetic analysis was performed at 25° C. After completion, the recorded binding responses were fitted to a simple Langmuir 1:1 binding model with Scrubber 2 software for calculation of the on-rate (kₒₙ or kₐ), off-rate (koff or kd) and affinity (KD) constants.
Binder B1 has a Kd of 2.9 nM, a koff of 0.00097 s⁻¹ and a kon of 340000 M⁻¹ s⁻¹.
For B2, the Kd was 5.3 nM, the koff was 0.00076 s⁻¹ and the kon was 140000 M⁻¹ s⁻¹.
In the case of B3, the Kd is reported as 3.1 nM, the koff is reported as 0.0008 s⁻¹ and the kon is reported as 260000 M⁻¹ s⁻¹.
For B4, the Kd was 2.1 nM, the koff was 8e-05 s⁻¹ and the kon was 38000 M⁻¹ s⁻¹.
For B5, the Kd was 3.7 nM, the koff was 0.00087 s⁻¹ and the kon was 230000 M⁻¹ s⁻¹.
Binder B6 has a Kd of 34 nM, a koff of 0.0013 s⁻¹ and a kon of 39000 M⁻¹ s⁻¹.
In the case of B7, the Kd is reported as 4.3 nM, the koff is reported as 0.00062 s⁻¹ and the kon is reported as 140000 M⁻¹ s⁻¹.
B8 was tested, and the Kd was 6.4 nM, the koff was 0.00062 s⁻¹ and the kon was 97000 M⁻¹ s⁻¹.

Each binder was assayed against T3, human PD-1 ECD (Acro Biosystems cat. no. PD1-H52219) (human, UniProt Q15116 25-170) in the same assay as above.
T3 construct: extracellular domain; Bought monomeric ECD; also called monomeric PD-1 antigen
T3 sequence (Q15116 25-170, one chain of several): as the sequence (B0LAJ3 entry or part of it limits assumed) above, with E2D, A10P, L19V, A35T, R75Q, A144T counted along it
Experimental: as §1
B1 showed a Kd of 0.41 nM, a koff of 0.00011 s⁻¹ and a kon of 260000 M⁻¹ s⁻¹.
B2 gave a Kd of 0.6 nM, a koff of 0.0001 s⁻¹ and a kon of 170000 M⁻¹ s⁻¹.
In the case of B3, the Kd is reported as 0.29 nM, the koff is reported as 0.00017 s⁻¹ and the kon is reported as 580000 M⁻¹ s⁻¹.
In the case of B4, the Kd is reported as 1.8 nM, the koff is reported as 6e-05 s⁻¹ and the kon is reported as 34000 M⁻¹ s⁻¹.
For B5, the Kd was 1.6 nM, the koff was 0.00035 s⁻¹ and the kon was 230000 M⁻¹ s⁻¹.
B6 gave a Kd of 2.3 nM, a koff of 0.00023 s⁻¹ and a kon of 100000 M⁻¹ s⁻¹.
For B7, the Kd was 0.82 nM, the koff was 0.00011 s⁻¹ and the kon was 130000 M⁻¹ s⁻¹.
With B8 the Kd was 1.5 nM, the koff was 0.00011 s⁻¹ and the kon was 77000 M⁻¹ s⁻¹.

These binders were tested against T1, mouse PD-1 ECD (Sino Biological cat. …) in the same assay as above.
Experimental: as §1
B1: no binding (tested: 100 nM).
B2: no binding (tested: 100 nM).
B3: no binding (tested: 100 nM).
B4: no binding (tested: 100 nM).
With B5 the Kd was 11 nM, the koff was 5e-05 s⁻¹ and the kon was 4700 M⁻¹ s⁻¹.
B6: no binding (tested: 100 nM).
B7: no binding (tested: 100 nM).
B8: no binding (tested: 100 nM).
